Data reported in the supplement of paper PMC5998384.

Experiments:
HeLa Kyoto [1] = assay: solubility in G1/S (NP-40 vs SDS abundance) (log2 ratio); higher = more soluble; conditions: cell cycle stage: G1/S
HeLa Kyoto [2] = assay: solubility change mitosis vs G1/S (difference of NP-40 vs SDS log2 ratios) (log2 ratio difference); higher = more soluble in mitosis
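Wherever solubility change mitosis vs G1/S (difference of NP-40 vs SDS log2 ratios) is given: synchronized HeLa Kyoto cells (double thymidine block for G1/S, nocodazole release for mitosis), protein amounts in NP-40 versus SDS lysates quantified by mass spectrometry, three biological replicates.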
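Wherever solubility in G1/S (NP-40 vs SDS abundance) is given: HeLa Kyoto cells arrested at G1/S by double thymidine block, proteins quantified by TMT10plex mass spectrometry in mild NP-40 versus SDS extracts, three biological replicates.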

Sequence | solubility in G1/S (log2) (HeLa Kyoto [1]) | solubility change mitosis (log2) (HeLa Kyoto [2])
MAGAGGQHHPPGAAGGAAAGAGAAVTSAAASAGPGEDSSDSEAEQEGPQKLIRKVSTSGQIRTKTSIKEGQLLKQTSSFQRWKKRYFKLRGRTLYYAKDSKSLIFDEVDLSDASVAEASTKNANNSFTIITPFRRLMLCAENRKEMEDWISSLKSVQTREPYEVAQFNVEHFSGMHNWYACSHARPTFCNVCRESLSGVTSHGLSCEVCKFKAHKRCAVRATNNCKWTTLASIGKDIIEDEDGVAMPHQWLEGNLPVSAKCAVCDKTCGSVLRLQDWKCLWCKTMVHTACKDLYHPICPLGQCKVSIIPPIALNSTDSDGFCRATFSFCVSPLLVFVNSKSGDNQGVKFLRRFKQLLNPAQVFDLMNGGPHLGLRLFQKFDNFRILVCGGDGSVGWVLSEIDKLNLNKQCQLGVLPLGTGNDLARVLGWGGSYDDDTQLPQILEKLERASTKMLDRWSIMTYELKLPPKASLLPGPPEASEEFYMTIYEDSVATHLTKILNSDEHAVVISSAKTLCETVKDFVAKVEKTYDKTLENAVVADAVASKCSVLNEKLEQLLQALHTDSQAAPVLPGLSPLIVEEDAVESSSEESLGESKEQLGDDVTKPSSQKAVKPREIMLRANSLKKAVRQVIEEAGKVMDDPTVHPCEPANQSSDYDSTETDESKEEAKDDGAKESITVKTAPRSPDARASYGHSQTDSVPGPAVAASKENLPVLNTRIICPGLRAGLAASIAGSSIINKMLLANIDPFGATPFIDPDLDSVDGYSEKCVMNNYFGIGLDAKISLEFNNKREEHPEKCRSRTKNLMWYGVLGTRELLQRSYKNLEQRVQLECDGQYIPLPSLQGIAVLNIPSYAGGTNFWGGTKEDDIFAAPSFDDKILEVVAIFDSMQMAVSRVIKLQHHRIAQCRTVKITIFGDEGVPVQVDGEAWVQPPGIIKIVHKNRAQMLTRDRAFESTLKSWEDKQKCDSGKPVLRTHLYIHHAIDLATEEVSQMQLCSQAAEELITRICDAATIHCLLEQELAHAVNACSHALNKANPRCPESLTRDTATEIAINVKALYNETESLLVGRVPLQLESPHEERVSNALHSVEVELQKLTEIPWLYYILHPNEDEEPPMDCTKRNNRSTVFRIVPKFKKEKVQKQKTSSQPVQKWGTEEVAAWLDLLNLGEYKDIFIRHDIRGAELLHLERRDLKDLGIPKVGHVKRILQGIKELGRSTPQSEV [DGKH] | -0.212 | 0.0195
MAGEEINEDYPVEIHEYLSAFENSIGAVDEMLKTMMSVSRNELLQKLDPLEQAKVDLVSAYTLNSMFWVYLATQGVNPKEHPVKQELERIRVYMNRVKEITDKKKAGKLDRGAASRFVKNALWEPKSKNASKVANKGKSKS [C1D] | -0.223 | 0.679
MAGNKGRGRAAYTFNIEAVGFSKGEKLPDVVLKPPPLFPDTDYKPVPLKTGEGEEYMLALKQELRETMKRMPYFIETPEERQDIERYSKRYMKVYKEEWIPDWRRLPREMMPRNKCKKAGPKPKKAKDAGKGTPLTNTEDVLKKMEELEKRGDGEKSDEENEEKEGSKEKSKEGDDDDDDDAAEQEEYDEEEQEEENDYINSYFEDGDDFGADSDDNMDEATY [POLR3G] | 0.214 | -0.0224
MAGPAPPVADELPGPAARRLYSRMEASCLELALEGERLCKAGDFKTGVAFFEAAVQVGTEDLKTLSAIYSQLGNAYFYLKEHGRALEYHKHDLLLARTIGDRMGEAKASGNLGNTLKVLGRFDEAAVCCQRHLSIAQEQGDKVGEARALYNIGNVYHAKGKQLSWNAANATQDPGHLPPDVRETLCKASEFYERNLSLVKELGDRAAQGRAYGNLGNTHYLLGNFTEATTFHKERLAIAKEFGDKAAERRAYSNLGNAHVFLGRFDVAAEYYKKTLQLSRQLRDQAVEAQACYSLGNTYTLLQDYERAAEYHLRHLLIAQELADRVGEGRACWSLGNAYVSMGRPAQALTFAKKHLQISQEIGDRHGELTARMNVAQLQLVLGRLTSPAASEKPDLAGYEAQGARPKRTQRLSAETWDLLRLPLEREQNGDSHHSGDWRGPSRDSLPLPVRSRKYQEGPDAERRPREGSHSPLDSADVRVHVPRTSIPRAPSSDEECFFDLLTKFQSSRMDDQRCPLDDGQAGAAEATAAPTLEDRIAQPSMTASPQTEEFFDLIASSQSRRLDDQRASVGSLPGLRITHSNAGHLRGHGEPQEPGDDFFNMLIKYQSSRIDDQRCPPPDVLPRGPTMPDEDFFSLIQRVQAKRMDEQRVDLAGGPEQGAGGPPEPQQQCQPGAS [GPSM1] | 0.244 | -0.0781
MAGPGSTGGQIGAAALAGGARSKVAPSVDFDHSCSDSVEYLTLNFGPFETVHRWRRLPPCDEFVGARRSKHTVVAYKDAIYVFGGDNGKTMLNDLLRFDVKDCSWCRAFTTGTPPAPRYHHSAVVYGSSMFVFGGYTGDIYSNSNLKNKNDLFEYKFATGQWTEWKIEGRLPVARSAHGATVYSDKLWIFAGYDGNARLNDMWTIGLQDRELTCWEEVAQSGEIPPSCCNFPVAVCRDKMFVFSGQSGAKITNNLFQFEFKDKTWTRIPTEHLLRGSPPPPQRRYGHTMVAFDRHLYVFGGAADNTLPNELHCYDVDFQTWEVVQPSSDSEVGGAEVPERACASEEVPTLTYEERVGFKKSRDVFGLDFGTTSAKQPTQPASELPSGRLFHAAAVISDAMYIFGGTVDNNIRSGEMYRFQFSCYPKCTLHEDYGRLWESRQFCDVEFVLGEKEECVQGHVAIVTARSRWLRRKITQARERLAQKLEQEAAPVPREAPGVAAGGARPPLLHVAIREAEARPFEVLMQFLYTDKIKYPRKGHVEDVLLIMDVYKLALSFQLCRLEQLCRQYIEASVDLQNVLVVCESAARLQLSQLKEHCLNFVVKESHFNQVIMMKEFERLSSPLIVEIVRRKQQPPPRTPLDQPVDIGTSLIQDMKAYLEGAGAEFCDITLLLDGHPRPAHKAILAARSSYFEAMFRSFMPEDGQVNISIGEMVPSRQAFESMLRYIYYGEVNMPPEDSLYLFAAPYYYGFYNNRLQAYCKQNLEMNVTVQNVLQILEAADKTQALDMKRHCLHIIVHQFTKVSKLPTLRSLSQQLLLDIIDSLASHISDKQCAELGADI [LZTR1] | -0.115 | -0.0816
MAGQEDPVQREIHQDWANREYIEIITSSIKKIADFLNSFDMSCRSRLATLNEKLTALERRIEYIEARVTKGETLT [BRK1] | -0.551 | 0.228
MAKAGDKSSSSGKKSLKRKAAAEELQEAAGAGDGATENGVQPPKAAAFPPGFSISEIKNKQRRHLMFTRWKQQQRKEKLAAKKKLKKEREALGDKAPPKPVPKTIDNQRVYDETTVDPNDEEVAYDEATDEFASYFNKQTSPKILITTSDRPHGRTVRLCEQLSTVIPNSHVYYRRGLALKKIIPQCIARDFTDLIVINEDRKTPNGLILSHLPNGPTAHFKMSSVRLRKEIKRRGKDPTEHIPEIILNNFTTRLGHSIGRMFASLFPHNPQFIGRQVATFHNQRDYIFFRFHRYIFRSEKKVGIQELGPRFTLKLRSLQKGTFDSKYGEYEWVHKPREMDTSRRKFHL [RPF1] | -1.77 | 0.774
MAKDAGLIEANGELKVFIDQNLSPGKGVVSLVAVHPSTVNPLGKQLLPKTFGQSNVNIAQQVVIGTPQRPAASNTLVVGSPHTPSTHFASQNQPSDSSPWSAGKRNRKGEKNGKGLRHFSMKVCEKVQRKGTTSYNEVADELVAEFSAADNHILPNESAYDQKNIRRRVYDALNVLMAMNIISKEKKEIKWIGLPTNSAQECQNLEVERQRRLERIKQKQSQLQELILQQIAFKNLVQRNRHAEQQASRPPPPNSVIHLPFIIVNTSKKTVIDCSISNDKFEYLFNFDNTFEIHDDIEVLKRMGMACGLESGSCSAEDLKMARSLVPKALEPYVTEMAQGTVGGVFITTAGSTSNGTRFSASDLTNGADGMLATSSNGSQYSGSRVETPVSYVGEDDEEDDDFNENDEDD [TFDP1] | 0.136 | -0.176
